Reference: a protein production outcome set (Wang et al. 2014)

Experiment: label from the status in PepcDB records

| Sequence | protein production |
| --- | --- |
| MRAASVPFSQRTTCKGRDGFDQFQIAFASAAERDHSCDQGRRQPGGRPPIQVAAVSGFMHRQGKTPMPTLTINGRSLSVDAANDTPLLWAIREQLQMTGTKFGCGAGLCGACTVHVNGEAVRSCQTMVGDVAGKKITTIEGLSAKGDHPLQKAWIAEQVPQCGYCQSGQIMQAASLLAKNANPTKEEVVAHMDGNLCRCMTYSRIQKAIMRAATEMRTASASGNERRPT | failed |
| MRAEADPEFAAVAERIHANVGRQGFMNLVGAELSELSRGTCTIAVERRPELLQQHGFFHGGVTAFLVDNATTIAAATSRGQPALTAEYKLNLLSPAVGEKLICRARVIKPGRQVSVVAADVFCVSDGVEKHTATALASIAMLSEDVAAKTKSPAA | failed |
| MRALLLIAALLAPTAALAQQQLPLWPNGAPGFESRKAIPEQAADYWVKSVNNPSITAYLPPKETATGAALIVLPGGGHRILVIHSEGSDVAKVMNPKGVAVFVVKYRLFREEGSPYTIDHARQDAVRAVRYVRAHAAVFGVDPKRIGLMGFSAGGEAVNLAVYQGAANDPKTDAVDAVSARPDFQVLVYPGPLGVPEKVPTDTPPAFIVAANDDECCSAPPVDLLTRFRAAKVPIEFHLFQSGGHAFNMGLRSHKAALKAWPDRLFDWLADNGWLKAG | failed |
| MRAMRWILPLLLAIGVAAPARAASEWAVKDGSVQVKAHADEQGRAVVRASIEIAAPPSVVFGVILDCGRAARMSPGVKRCRVVSRAADGSEVREHTVKWGFFLPALQSRSRLSLQPDREIRFTCIGGDIRACDGFWRLEPLDGGMRTRVTYDLWATAPYAAPAGLVSSLMRRTVPQSLAALRRECEGG | failed |
| MRAPGALLARMSRLLLLLLLKVSASSALGVAPASRNETCLGESCAPTVIQRRGRDAWGPGNSARDVLRARAPREEQGAAFLAGPSWDLPAAPGRDPAAGRGAEASAAGPPGPPTRPPGPWRWKGARGQEPSETLGRGNPTALQLFLQISEEEEKGPRGAGISGRSQEQSVKTVPGASDLFYWPRRAGKLQGSHHKPLSKTANGLAGHEGWTIALPGRALAQNGSLGEGIHEPGGPRRGNSTNRRVRLKNPFYPLTQESYGAYAVMCLSVVIFGTGIIGNLAVMCIVCHNYYMRSISNSLLANLAFWDFLIIFFCLPLVIFHELTKKWLLEDFSCKIVPYIEVASLGVTTFTLCALCIDRFRAATNVQMYYEMIENCSSTTAKLAVIWVGALLLALPEVVLRQLSKEDLGFSGRAPAERCIIKISPDLPDTIYVLALTYDSARLWWYFGCYFCLPTLFTITCSLVTARKIRKAEKACTRGNKRQIQLESQMNCTVVALTILYGFCIIPENICNIVTAYMATGVSQQTMDLLNIISQFLLFFKSCVTPVLLFCLCKPFSRAFMECCCCCCEECIQKSSTVTSDDNDNEYTTELELSPFSTIRREMSTFASVGTHC | failed |
| MRCMSDDHTHVQEFFEARAADWDSRFPDDGPAHAAAVAELGLREGDRVLDAGCGTGRALPSLRAAVGSSGVVVGVDLTPAMLAAAARAGRGRDGHLLLADVTRLPLGTESLDAVFAAGLIAHLPEPAENLRELARVVRAGGTLALFHPIGRAALAARQGRQITPDDLRAEANLGPLLAGSGWRMTSYVDEDARFLALAVRVKLEHHHHHH | failed |
| MRDDVFGQSNSLTRADSAEAWDGVLLGFMAHAAVTPQHLARVLELEPDFALAHAIKGLFMLLLGRREMTPVAIEAMAAAERAAAARAITAREGHYLAALRHWLAGNPSRSVQEFEAILRAHPDDTLAMKLSHATRFVLGDPAGMRRSIERVMPAYAPDHAGRGYLLGCHAFALEETGAYDKAEIAGRQALWMVSDDAWGLHAVAHVHEMKGQSELGLDWLAGREAAWSHCNNFRYHVWWHKALMHLDQGQIDQVFDLYDSAIRKDKTDDYRDISNATSLLSRLELEGVNVGDRWEELADLSAARTEDGCLIFADLHYLLALTGDTREDAISRMLHRIKRDADMAQCDTTRRMADPGLAAAQGLEAFGEGQYGQAFDHLLTARGSMQLAGGSHAQRDVFERITIDAGLRAGRLDAVERVLDDRRAKRGGHEDTYALARRALIEAGRDDRNIHSVPAE | failed |
| MRDFGEILAENRKKKGYSQSDLVNLLSQEGIQVTTKALSKWENNAREPALHVFLTLCQLLDIEDIYESFFGENPYNIMSGLNEEGRNKLIEFADILKASKKFSPLSAKIIPFHHPVEITWEPVSAGTGNYLEDSVKETYDVGHLAPEQTDFGVRISGDSMEPLYHTDDVAWIQKKDSLANGEIGIFYLNGNTYIKELHDEPDGVYLISLNQKYRPIQVLESDSFKIFGKVIGKCKGAEIPGFHLEHHHHHH | not failed |
| MRDLITNRFTSQRTLREGSVGLLFLLGLGAFGVILLWLNRYTAAGSSYKAVVEFANAGGMQRGATVRYRGVKVGRISQIQPGPNAVEVEIEFAQSNLIIPRDVVIEANQTGLISESIIDITPKSSLPTGQTLPKPLDKNCDNSLIICNNSRLKGQIGISVDALIRSSTDFANTYTNPEFYQRVNRLLETSAQAATSVAALTQDFRGLTKSFQGQLGTFASTANTVQRATNELTVSTTKTVNQFGITADKFGTTATQASRLLSDLNSLLNTNRSSLVSALNNITETSNQLRLTVTNLSPSLNRLTQGELIKNLEALSANAAQASANLRNATESLNDPKNAVLLQQTLDSARLTFENTQKITSDLDELTGDPNFRQNLRQLVNGLSGLVSSTDQIEQQAKLATTLESMKAAADKPNITIPSLATHPSSNAVTIANNQPQVSSQEKLLQQLRDYAEQGSGEDKKQGSREQREELMKTDY | failed |
| MRDYSELEIFEGNPLDKWNDIIFHASKKLSKKELERLLELLALLETFIEKEDLEEKFESFAKALRIDEELQQKIESRKTDIVIQSMANILSGNE | not failed |
| MREALRSLLVALQFLTRLPVRLSAMPTPEQFGRAVLCYPLVGVLIGVVLYAAARSLDGTPPLLQAALLLSLWVALSGALHLDGLADMADAWVGGLGDRERTLAIMKDPRSGPVAVVVLVLVLLLKFSALAALLGQGEAGLLPLAPWLARSSLPLLFLTTPYARPGGLGQAIAEHLPARSLPWVLGVSFGLALAFGLAGLLALLVTLMLFAWLRSRFLARLGGTTGDTAGALVELTECAVLVALAL | failed |
| MREDNPNWFLRWEEELPSPEELIPISQTLITPHLALAFQIGSPNHHLGSKRTTAIYHQKLQSSTTPTTPTPTPPPMMMNSDFGGGDSTDLGSGSIGGEPARTLKRPRLVWTPQLHKRFVDAVGHLGIKNAVPKTIMQLMSVEGLTRENVASHLQKYRLYLRRMQGGNGNGITGGHVIVSDSATDRLFASSPVPAHFLSPDYLMPPLEHSYMGKHVITQQNQVVRNLRYEDSEYGHGSMKMLKLFPAGN | not failed |
| MREETKCALIIDESLPLGLIANTAAILGAALGKNKPDLIGETVTDGSGIDHLGIVKIPIPILKGNAELLHQLSQKLLTDEFNDILTVDFTDVAQSIHTYEAYIEAFQSTAASDYRYFGIGICGDKKKVARLTGSLGLLRLEHHHHHH | not failed |
| MREHHHNLRHYTLYAATIITITTLVRFWFVASGQLDLVQDEAQYWDWTRRLQLSYYSKGPLIAWLIGMWTGVFGDTELGVRFGALAGSALAQVMLFLGVGRLFGRPRLALLTLGVANTTPLFMVAGVLMTTDGPLLLCWLGALLCIHAATRTPRATAPYLLLAMCMAVGVLAKYMMLAVAAIACLHMWLLHRQRLLPQGVALRVVCACLAGAACGMLPILLWNAQNDWVGFKHVGTLAGVTGKASKAFLRLDRLPEHLGAQLGVATPWWLLLMLGMAWRSLRIAWTGVVPPGEPAEAAGREEAVRQSSLLFCAFMPLWGVITLWSLHTRIYPNWPAMSYVGGIILAAAGVERLLDGLGAPRWRRLVPLWFTLGACLFAAAHFQNTLPLPASLNPAARLKGWEDLGRELDRVRHGLPHPDRVFFFSDAYDITAELAFYVPGKPFTFCADFGRRMSQYDLWPSPADKVGWDAVFVRRDGTSVPRELLEMFDSAELYRYQSTHHGAPGRVFTVIVLRGFNGEWPRRSFRSF | failed |
| MRETGSRPSRSGERRLSWLWLAMAASLVFAVFAVRPPSRIDNVLYDVLTRANAHPADDSILIVDIDDRSLARMGAWPWGRDTHARMVDQLTQAGAKTIVYDVLFSQPSRDPAQDRALGEAIARSGRVYLPEFLIDGGEQAPPRVVGSISEIARGAAGVGLAHVRFDDDGVVRRMAPFEANGPSLKPDLMTVVHRATRPPGSPDVTRGNEQTLLISFAGPPSIYRHASFASVLDGEVPRELIAGRTVFVGLTAPGLGPAFPTPVTPDAASMTGVQLQASVLDALRSGRMITPAGPWSRVGFSLTLLWLLMIGFMALPPRANLLLTIGLCLVGLAYSAALFWLGHIWLSPITTVIGLQLVALIWGWGRLGQVNDLIGRELARVRAVVRGRGAKPAAFSGDVVTRQASSLGDAITRMDDLRRFSADALFSLPDATLVANEQGRVIAANAAAQALFKPHQATLNGASLADLINLLDPLGRRFELDWPQATDRHDPIDLHLPDGRAFQLQTVLRRDEHGGPAGWIVRLADISILTAAMRQREQALQLLTHDMRSPQTSILALLATTPDLPKETADRIAAYARRTLALADGFVQLARAEVTPVSLEPLDLADVAVEAIDEVWPQSLQRKIRIEQVGGEAPLMVLGDRSVLARTFVNLLGNALKYSPSGSTITVNLAEQPSPSGPVACIAIADQGPGFSREEAATAFRPFQRFERPGHELASNGVGLGLAFVQAAVARHGGEVSCRSEPGVGAEFTVRLPRHGVVQGG | failed |
| MRETIREIQKVAYWLAIKGLSEANAGNISVRLDERPEGYEVKSVNEYGFDYDGPEMYLLITATGSRMREVYEDDSKICLLHVLPGKHYEILHGNGKPTSEFPTHLMIHAKFKEMNPEKKAIVHTHPLNLLTLMNLEEFQELLPKMMKIHPEVLIFFPQGISVVEFEKPGSVELGLKTVEKSEGKDAVLWDKHGVVAFGKDVAEAYDRVEILEKAAEILLRVLSLGRNPTGVPEGWL | not failed |
| MRETSNPVFRSLPKQRGGYAQFGTGTAQQGFPADPYLAPYREAKATRPLTIDDVVTKTGLTLAMLAGTAVVSYFLVASNVALAMPLTLVGALGGLALVLVATFGRKQDNPAIVLSYAALEGLFLGAISFVLANFTVASANAGVLIGEAILGTMGVFFGMLVVYKTGAIRVTPKFTRMVVAALFGVLVLMLGNLVLAMFNVGGGEGLGLRSPGPLGIIFSLVCIGIAAFSFLIDFDAADQMIRAGAPEKAAWGVALGLTVTLVWLYIEILRLLSYLQNE | failed |
| MRFLFLLFIVFPAIEIGIFLFLGNLIGILPTVLFMILTGIIGAAAAKKQGTEVYYKVQRDLQYGKMPGEAIADGLCIFIGGLLLMLPGFLSDLAGACLLIPFTRGWCKPILFKWLRGMSKNKRIIIK | failed |
| MRFMFLHPRLSLEGDPLGLMQLSASLKQRGHIVGLTLLTEDYIEAIRSFQPDMLGVSLMSSDAVMMHQVLNKVRMVFPDLFIIVGGPHPTFDPSCLMVLPVNAICVGEGDEALVEALEQYGREGHVEGIRNVGTVTTPVTLRPLVSDLDDLPFIDRDIVYAKNHIVRDFPLKTFAASRGCHFKCTYCFNHAYNAMYAGLGHVVRRRSVDHLIAEMRDVIARYPTSYIKISDDSFTYRVDSWLEEFAEKYPRLIGLPFYCLLRADVVTRDMVRLLREAGCRSVCMSIEAGAETVRRDVLNRRVSNEKIIESFDLFNEAGIAIYTNSMLAMPRATLADDIATLDLNIRCRPTLGHFTIMAPFPGTRIHDMCEKDGILPERCGGDGDIPTSTGELSKLTTYTDEEKNIQKNIVLLGPLVIRFPVLRGVFLRCLAKLPSNNILFKCIYTVTKNLLFKRIVPVRMSPLLMLRIAIAQVKAARTQVG | failed |
| MRFNYPPDGVSQLIASRWKIGVALALAVLLFFAFLVLLPLADGIVLGIVFAYIARPIQVKFGKYRKIGALIASLFIFIPIVFIVGAGVVEILNQISWIFENQTSVMSGILDFIHGLEIPSTYVERINNAIWNLFTSLLPAVGSVGLISYAQSIGLFVINFIVSIFFCYFLLADGDRLYCAFIGMIPSDYQNIVNRYASHLDLILKGVFIGNAYSALIVSVTSVFVFRAFGFSHVLALATLVFIASVIPLFAGYMVLVPMALFRYFEQGFQSAALFFVVSSLVIYGPPELILRPFLTSLKSKIHPMLLMLAFLGGAFVGGIAGFFAAPILLGALVAAYRVYQEQIHPELVAQADVYLKDPAKACRTDEKNSFQ | failed |
